Numbering of substitutions follows the chain as printed.
B1: C114 (antibody, V domains shown)
VH: QVQLVESGGGLIQPGGSLKLSCVVSGFTVSKNYISWVRQAPGKGLEWVSVIFAGGSTFYADSVKGRFAISRDNSNNTLFLQMNSLRVEDTAIYYCARGDGELFFDQWGQGTLVTVSS
VL: QSVLTQPPSVSGAPGQRVTISCTGTSSNIGAGYDVHWYQQLPGRAPKVLISGNNIRPSEVPDRFSGSRSGTSASLAITSLQPEDEAQYYCQSYDSSLYAVFGGGTKLTVL
B2: C120 (antibody, V domains shown)
VH: EVQLVESGGGLIQPGGSLRLSCAASGFTVSSNYMTWVRQAPGKGLEWVSLIYPGGSTYYADSVKGRFTISRDNSKNTLYLQMNSLRAEDTAVYYCAREGMGMAAAGTWGQGTLVTVSS
VL: AIRMTQSPSSLSASVGDTVTITCQASQDISKYLNWYQQKPGKAPKLLIYDASNLETGVPSRFSGSGSGTDFTFTISSLQPEDIATYYCQQYDNLPQTFGGGTKVEIK
B3: C131 (antibody, V domains shown)
VH: QVQLVQSGSEVKKPGSSVKVSCKASGGTFSSYAFSWVRQAPGQGLEWMGRIIPILALANYAQKFQGRVTITADKSTSTAYMELSSLRSEDTAVYYCARVNQAVTTPFSMDVWGQGTTVTVSS
VL: not shown
B4: C119 (antibody, V domains shown)
VH: QVQLVQSGAEVKKPGASVKVSCKASGYTFTSYYMHWVRQAPGQGLEWMGIINPSGGSTSYAQKLQGRVTMTRDTSTSTVYMELSSLRSEDTAVYYCARANHETTMDTYYYYYYMDVWGKGTTVTVSS
VL: QSALTQPASVSGSPGQSITISCTGTSSDVGGYKYVSWYQRHPGKAPKLMIYDVSNRPSGVSNRFSGSKSGNTASLTISGLQAEDEADYYCSSYTSSSTSVVFGGGTQLTVL
B5: C143 (antibody, V domains shown)
VH: EVQLVESGGGLVQPGGSLRLSCAASGFSVSTKYMTWVRQAPGKGLEWVSVLYSGGSDYYADSVKGRFTISRDNSKNALYLQMNSLRVEDTGVYYCARDSSEVRDHPGHPGRSVGAFDIWGQGTMVTVSS
VL: QSALTQPASVSGSPGQSITISCTGTSNDVGSYTLVSWYQQYPGKAPKLLIFEGTKRSSGISNRFSGSKSGNTASLTISGLQGEDEADYYCCSYAGASTFVFGGGTKLTVL
B6: C133 (antibody, V domains shown)
VH: QVQLVESGGGVVQPGRSLRLSCAASGFTFSSYAMHWVRQAPGKGLEWVAVILYDGSNKYYADSVKGRFTISRDNSKNTLYLQMNSLRAEDTAVYYCARDSDVDTSMVTWFDYWGQGTLVTVSS
VL: not shown
B7: C121 (antibody, V domains shown)
VH: not shown
VL: QSALTQPASVSGSPGQSITISCTGTSSDVGSYNLVSWYQQHPGKAPKLMIYEGSKRPSGVSNRFSGSKSGNTASLTISGLQAEDEADYYCCSYAGSSTLVFGGGTKLTVL
B8: C132 (antibody, V domains shown)
VH: QVQLQESGPGLVKPSGTLSLTCAVSGGSISSNNWWSCVRQPPGKGLEWIGEIYHSGSTNYNPSLKSRVTISVDKSKNQFSLKLSSVTAADTAVYYCARGGDTAMGPEYFDYWGQGTLVTVSS
VL: B7 VL with S31G, L34Y, E52D, G53V, K55N, C91S, A94T, G95S, V100L
B9: C128 (antibody, V domains shown)
VH: EVQLLESGGGLVQPGGSLRLSCAASGFTFSTYAMSWVRQAPGKGLEWVSTITGSGRDTYYADSVKGRFTISRDNSKNTLFLQLNSLRAEDAAVYSCANHPLASGDDYYHYYMDVWGKGTTVTVSS
VL: EIVLTQSPGTLSLSPGERATLSCRASQSVNSRQLAWYQQKPGQAPRLLIYGASSRATGIPERFSGSGSGTDFTLTISRLESEDFAVYHCQQYGSSRALTFGGGTKVEIK
B10: C124 (antibody, V domains shown)
VH: EVQLVESGGGLVQPGGSLRLSCAASGFTFSGYSMNWVRQAPGKGPEWVSYISRSSSTIYYADSVKGRFTISRDNAKNSLYLQMNSLRDEDTAVYYCAREGARVGATYDTYYFDYWGQGTLVTVSS
VL: EIVLTQSPATLSLSPGERATLSCRASQSFSSYLAWYQQKPGQAPRLLIYDASNRATGIPARFSGSGSGTDFTLTISSLEPEDFAVYYCQQRNNWPPEWTFGQGTKVEIK
B11: C115 (antibody, V domains shown)
VH: QVQLVESGGGLIKPGRSLRLSCTASGFTFGDYAMTWFRQAPGKGLEWVGFIRSKAYGGTTGYAASVKYRFTISRDDSKSIAYLQMDSLKTEDTAVYYCTRWDGWSQHDYWGQGTLVTVSS
VL: DIVMTQSPLSLSVTPGEPASISCRSSQSLLHSNGNNYFDWYLQKPGQSPQLLIYLGSNRASGVPDRFSGSGSGTDFTLKISRVEAEDVGVYYCMQVLQIPYTFGQGTKLEIK
B12: C118 (antibody, V domains shown)
VH: QVQLVESGGGVVQPGRSLRLSCAASGFTFSNYAMHWVRQAPGKGLEWVAVISYDGSNKYYADSVKGRFTISRDNSKNTLYLQMNSLRAEDTAIYYCASGYTGYDYFVRGDYYGLDVWGQGTTVTVSS
VL: QPVLTQSPSASASLGASVKLTCTLSSGHSSYAIAWHQQQPEKGPRYLMKLNTDGSHSKGDGIPDRFSGSSSGAERYLTISSLQSEDEADYYCQTWGTGILVFGGGTKLTVL
B13: C116 (antibody, V domains shown)
VH: QVQLVESGGGVVQPGRSLRLSCAASGFTYSTYAMHWVRQAPGKGLEWVAFISYDGSNKYYADSVKGRFTISRDNSKNTLYLQMNSLRAEDTAVYYCARDFYHNWFDPWGQGTLVTVSS
VL: NFMLTQPHSVSESPGKTVTISCTGSSGSIASNYVQWYQQRPGSAPTTVIYEDNQRPSGVPDRFSGSIDRSSNSASLTISGLKTEDEADYYCQSYDSGNHWVVFGGGTRLTVL
B14: C126 (antibody, V domains shown)
VH: QVQLQESGPGLVKPSETLSLSCAVSGGSIGSYFWSWIRQPPGKGLEWIGYLHYSGSTNYNPSLKSRVTISVDTSKNQFSLKLSSVTAADTAVYYCARLQWLRGAFDIWGQGTMVTVSS
VL: NFMLTQPHSVSESPGKTVTISCTGSSGSIASNYVQWYQQRPGSAPTTVINEDNQRPSGVPDRFSGSIDSSSNSASLTISGLKTEDEADYYCQSYDSSNLVFGGGTKLTVL
B15: C141 (antibody, V domains shown)
VH: not shown
VL: B14 VL with N50Y, L99W
B16: C138 (antibody, V domains shown)
VH: EVQLVESGGGLVQPGGSLRLSCAASGFTFSTYWMSWVRQPPGKGLEWVANIKQDGSEKYYVDSVKGRFTISRDNAKNSLYLQMNSLRADDTAVYYCAGGTWLRSSFDYWGQGTLVTVSS
VL: B14 VL with N50Y, L99W
B17: C122 (antibody, V domains shown)
VH: EVQLVESGGGLIQPGGSLRLSCAASGLTVSSNYMSWVRQAPGKGLEWVSVLYSGGSSFYADSVKGRFTISRDNSKNTLYLQMNSLRAEDTAVYYCARESGDTTMAFDYWGQGTLVTVSS
VL: DIQLTQSPSFLSASVGDRVTITCRASQGISSYLAWYQQKPGKAPKLLIYAASTLQSGVPSRFSGSGSGTEFTLTISSLQPEDFATYYCQQLNSDSYTFGQGTKLEIK
B18: C140 (antibody, V domains shown)
VH: EVQLVESGGGLVQPGGSLRLSCAASGVTVSSNYMSWVRQAPGKGLEWVSLIYSGGSTFYADSVKGRFTISRDNSENTLYLQMNTLRAEDTAVYYCARDLYYYGMDVWGQGTTVTVSS
VL: B17 VL with D94Y
B19: C123 (antibody, V domains shown)
VH: EVQLVESGGGLIQPGGSLRLSCAASGVTVSRNYMSWVRQAPGKGLEWVSVIYSGGSTYYADSVKGRFTISRDNSKNTLYLQMNSLRAEDTAVYYCARDLSAAFDIWGQGTMVTVSS
VL: B17 VL with D94Y, S95P, Y96P, T97A, K103R
B20: C139 (antibody, V domains shown)
VH: EVQLVESGGGVVQPGRSLRLSCAASGFTFSSYAMHWVRQAPGKGLEWVAVISYDGSNKYSADSVKGRFTISRDNSKNTLYLQMNSLRAEDTAVYYCAKGGAYSYYYYMDVWGKGTTVTVSS
VL: not shown
B21: C117 (antibody, V domains shown)
VH: QVQLVESGGGVVQPGRSLRLSCAASGFTFSTYAMHWVRQAPGEGLEWVAVISYDGSNTYYADSVKGRFTISRDNSKNTLYLQMNSLRAEDTAVYYCARDPIWFGELLSPPFVHFDYWGQGTLVTVSS
VL: QSVLTQPPSVSAAPGQKVTISCSGSSSNIGNNLVSWYQQLPGTAPKLLIYENNKRPSGIPDRFSGSKSGTSATLGITGLQTGDEADYYCGAWDSSLSAGGVYVFGTGTKVTVL
B22: C130 (antibody, V domains shown)
VH: QVQLVQSGAEVKKPGASVKVSCKASGYTFTNYYMHWVRQAPGQGLEWMGIINPSGGSTGYAQKFQGRVTMTRDTSTSTVYMELSSLRSEDTAVYYCARSRPTPDWYFDLWGRGTLVTVSS
VL: SYELTQPPSVSVAPGKTARITCGGNNIGSKSVHWYQQKPGQAPVLVIYYDSDRPSGIPERFSGSNSGNTATLTISRVEAGDEADYYCQVWDSSSDHPGVVFGGGTKLTVL
B23: C134 (antibody, V domains shown)
VH: EVQLLESGGGLVQPGGSLRLSCAASGFTFSNYAMSWVRQAPGKGLEWVSAISGSDGSTYYAGSVKGRFTISRDNSKNTLYLQMNSLRAEDTAVYYCAKDPLITGPTYQYFHYWGQGTLVTVSS
VL: B22 VL with D84E, Y86H, H96R

Molecular target: SARS-CoV-2 receptor binding domain (RBD) (Severe acute respiratory syndrome …, UniProt P0DTC2)
Assay: cell-based or functional assay

Binder | IC50 of neutralisation of SARS-CoV-2 pseudovirus (293T_(ACE2) cells) [µg/mL]
B1 | > 1
B2 | 0.0133
B3 | 0.0305
B4 | 0.00912
B5 | > 1
B6 | > 1
B7 | 0.00673
B8 | 0.709
B9 | 0.101
B10 | 0.342
B11 | 0.198
B12 | 0.104
B13 | > 1
B14 | > 1
B15 | > 1
B16 | > 1
B17 | 0.0228
B18 | 0.0239
B19 | 0.149
B20 | > 1
B21 | 0.348
B22 | > 1
B23 | > 1

Source: publication PMC7263513 (bioRxiv, 2020)
